Our source for the Kd values is PMC4097884.

The pKd is the negative decadic logarithm of the Kd, by convention in mol/L. High values mean a low Kd, low ones a high Kd.

pKd: −log10 of the molar value.

Experiment [1] has as its target 3K peptide peptide on I-Ab (mouse). As to the kind of experiment: SPR, equilibrium. In general terms: SPR reads the build-up and loss of mass on a sensor chip optically.
For experiment [2], the target named is FMRKA peptide, from an IA^b-random peptide baculovirus library peptide on I-Ab (mouse). As to the kind of experiment: SPR, equilibrium.

With J809.B5 αY31A, the pKd in experiment [1] is 4.49; in experiment [2], 4.66.
